For the test, the target named is T1, P75 (UniProt P08138 29-427).
T1 construct: whole, on cells
T1 sequence (looked up): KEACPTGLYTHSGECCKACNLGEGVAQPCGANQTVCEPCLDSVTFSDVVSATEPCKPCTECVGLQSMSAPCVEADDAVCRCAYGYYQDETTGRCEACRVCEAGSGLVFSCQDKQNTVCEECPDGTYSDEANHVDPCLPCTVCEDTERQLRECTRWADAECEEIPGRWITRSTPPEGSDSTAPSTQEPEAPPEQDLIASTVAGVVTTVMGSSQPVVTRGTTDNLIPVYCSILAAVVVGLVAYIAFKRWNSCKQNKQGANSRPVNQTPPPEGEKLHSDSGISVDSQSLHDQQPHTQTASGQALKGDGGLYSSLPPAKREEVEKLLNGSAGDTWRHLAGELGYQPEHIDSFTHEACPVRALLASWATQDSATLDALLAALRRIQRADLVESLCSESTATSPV
The experiment in a line: I^125-labeled ligand crosslinked to A875 tumor cells expressing P75, immunoprecipitation, SDS-PAGE, autoradiography. As for the experimental part: The WT mouse NGF and mutant NGF was labeled with I¹²⁵, then added to both the cells expressing TrkA and the A875 tumor cells expressing P75. The ligand and receptor were crosslinked by N-hydroxysuccinimidyl-4-azidobenzoate, the cells were lysed, and the cross-linked complex was immunoprecipitated overnight at 4° C.

Results on one molecule are retold here after patent US20110082285A1 (STAIDSON BEIJING PHARMACEUTICAL, published 2011).

B1: mutant NGF (mouse NGF-β mature peptide with Lys32, Lys34 and Glu35 changed to Ala) (ligand)
chain: SSTHPVFHMGEFSVCDSVSVWVGDKTTATDIAGAAVTVLAEVNINNSVFRQYFFETKCRASNPVESGCRGIDSKHWNSYCTTTHTFVKALTTDEKQAAWRFIRIDTACVCVLSRKATRRG
modifications: Labelled with I^125 (labelled residues not stated). Disulfide-bonded monomer; NGF-β acts as a non-covalent homodimer, one chain given.
notes: also called mutant NGF-β; NGF mutant
With B1, the binding result is “no binding”.
